Test results: patent US20220057403A1

Target: HA-tagged re-expressed version of the Qa-1b molecule (mouse)
Assay: immunoprecipitation of Qa-1b from tumor cells, mass spectrometry of the associated peptides

Chain of HA-tagged re-expressed version of the Qa-1b molecule (mouse) (P06339 21-357, chain 1 of 2): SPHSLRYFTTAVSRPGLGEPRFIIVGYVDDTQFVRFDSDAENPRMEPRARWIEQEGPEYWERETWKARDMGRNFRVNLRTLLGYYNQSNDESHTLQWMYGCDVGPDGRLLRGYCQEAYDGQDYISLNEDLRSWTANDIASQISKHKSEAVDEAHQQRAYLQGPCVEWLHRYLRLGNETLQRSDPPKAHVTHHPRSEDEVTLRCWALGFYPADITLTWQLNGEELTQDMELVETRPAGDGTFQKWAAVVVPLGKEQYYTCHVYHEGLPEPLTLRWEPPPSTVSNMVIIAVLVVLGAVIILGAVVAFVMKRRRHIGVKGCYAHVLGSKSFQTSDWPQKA
Chain of HA-tagged re-expressed version of the Qa-1b molecule (mouse) (P01887 21-119, chain 2 of 2, further chain): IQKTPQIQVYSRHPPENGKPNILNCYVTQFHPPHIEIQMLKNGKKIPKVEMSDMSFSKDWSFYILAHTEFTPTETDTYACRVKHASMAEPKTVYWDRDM

B1: Mouse Qdm Peptide (peptide)
peptide: AMAPRTLLL
- percent of Qa-1b associated with the peptide (control sample): > 99%
